{"source": "patent US20240166765A1", "about": "“INFLAMMATORY DISEASE TREATMENT USING ANTI-TISSUE FACTOR ANTIBODIES” (Iconic Therapeutics LLC, priority 2020, published 2024)", "key": {"[1]": {"target": "h1-107_r (human/rat chimera)", "sequence (chain, as listed by the source mutant limits assumed)": "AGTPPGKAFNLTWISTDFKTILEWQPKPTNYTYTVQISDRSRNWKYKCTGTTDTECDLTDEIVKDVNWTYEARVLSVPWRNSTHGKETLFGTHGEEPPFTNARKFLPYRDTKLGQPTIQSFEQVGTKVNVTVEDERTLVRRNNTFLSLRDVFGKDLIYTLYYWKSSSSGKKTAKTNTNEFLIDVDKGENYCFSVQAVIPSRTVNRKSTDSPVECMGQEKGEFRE", "experiment": "live cell staining, flow cytometry"}, "[2]": {"target": "r141-194_h (rat/human chimera) (UniProt P42533)", "experiment": "live cell staining, flow cytometry"}, "[3]": {"target": "h1-107_r (human/rat chimera)", "experiment": "live cell staining, flow cytometry, HEK293 cells expressing the construct"}, "[4]": {"target": "r141-194_h (rat/human chimera) (UniProt P42533)", "experiment": "live cell staining, flow cytometry, HEK293 cells expressing the construct"}}, "data": [{"substance": "5G9 (antibody)", "values": [{"measurement": "Percent antibody binding to TF construct relative to hTF", "setting": "[1]", "result": 41, "unit": "%"}, {"measurement": "Percent antibody binding to TF construct relative to hTF", "setting": "[2]", "result": 32, "unit": "%"}, {"measurement": "Percentage antibody binding to TF construct relative to hTF", "setting": "[3]", "result": "< 50", "unit": "%"}, {"measurement": "Percentage antibody binding to TF construct relative to hTF", "setting": "[4]", "result": "< 50", "unit": "%"}]}]}
